In IntAct's records for PubMed 35512704:

B1: Speckle-type POZ protein (Homo sapiens), O43791 (parent)
chain: MSRVPSPPPPAEMSSGPVAESWCYTQIKVVKFSYMWTINNFSFCREEMGEVIKSSTFSSGANDKLKWCLRVNPKGLDEESKDYLSLYLLLVSCPKSEVRAKFKFSILNAKGEETKAMESQRAYRFVQGKDWGFKKFIRRDFLLDEANGLLPDDKLTLFCEVSVVQDSVNISGQNTMNMVKVPECRLADELGGLWENSRFTDCCLCVAGQEFQAHKAILAARSPVFSAMFEHEMEESKKNRVEINDVEPEVFKEMMCFIYTGKAPNLDKMADDLLAAADKYALERLKVMCEDALCSNLSVENAAEILILADLHSADQLKTQAVDFINYHASDVLETSGWKSMVVSHPHLVAEAYRSLASAQCPFLGPPRKRLKQS
partner: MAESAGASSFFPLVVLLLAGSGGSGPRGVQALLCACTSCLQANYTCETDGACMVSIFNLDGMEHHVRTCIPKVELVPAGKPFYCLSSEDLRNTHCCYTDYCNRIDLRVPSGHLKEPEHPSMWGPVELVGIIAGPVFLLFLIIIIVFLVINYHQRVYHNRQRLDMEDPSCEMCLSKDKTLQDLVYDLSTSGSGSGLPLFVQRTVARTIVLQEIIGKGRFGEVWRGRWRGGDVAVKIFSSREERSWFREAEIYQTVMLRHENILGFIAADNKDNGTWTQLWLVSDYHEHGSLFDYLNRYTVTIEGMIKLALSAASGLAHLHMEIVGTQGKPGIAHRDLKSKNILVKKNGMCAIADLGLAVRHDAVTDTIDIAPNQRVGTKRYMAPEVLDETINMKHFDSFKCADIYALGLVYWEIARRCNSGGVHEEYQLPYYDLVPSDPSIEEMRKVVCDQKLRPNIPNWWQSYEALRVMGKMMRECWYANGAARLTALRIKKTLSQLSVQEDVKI
B2: Mothers against decapentaplegic homolog 4 (Homo sapiens), Q13485 (parent)
chain: MDNMSITNTPTSNDACLSIVHSLMCHRQGGESETFAKRAIESLVKKLKEKKDELDSLITAITTNGAHPSKCVTIQRTLDGRLQVAGRKGFPHVIYARLWRWPDLHKNELKHVKYCQYAFDLKCDSVCVNPYHYERVVSPGIDLSGLTLQSNAPSSMMVKDEYVHDFEGQPSLSTEGHSIQTIQHPPSNRASTETYSTPALLAPSESNATSTANFPNIPVASTSQPASILGGSHSEGLLQIASGPQPGQQQNGFTGQPATYHHNSTTTWTGSRTAPYTPNLPHHQNGHLQHHPPMPPHPGHYWPVHNELAFQPPISNHPAPEYWCSIAYFEMDVQVGETFKVPSSCPIVTVDGYVDPSGGDRFCLGQLSNVHRTEAIERARLHIGKGVQLECKGEGDVWVRCLSDHAVFVQSYYLDREAGRAPGDAVHKIYPSAYIKVFDLRQCHRQMQQQAATAQAAAAAQAAAVAGNIPGPGSVGGIAPAISLSAAAGIGVDDLRRLCILRMSFVKGWGPDYPRQSIKETPCWIEIHLHRALQLLDEVLHTMPIADPQPLD
partner: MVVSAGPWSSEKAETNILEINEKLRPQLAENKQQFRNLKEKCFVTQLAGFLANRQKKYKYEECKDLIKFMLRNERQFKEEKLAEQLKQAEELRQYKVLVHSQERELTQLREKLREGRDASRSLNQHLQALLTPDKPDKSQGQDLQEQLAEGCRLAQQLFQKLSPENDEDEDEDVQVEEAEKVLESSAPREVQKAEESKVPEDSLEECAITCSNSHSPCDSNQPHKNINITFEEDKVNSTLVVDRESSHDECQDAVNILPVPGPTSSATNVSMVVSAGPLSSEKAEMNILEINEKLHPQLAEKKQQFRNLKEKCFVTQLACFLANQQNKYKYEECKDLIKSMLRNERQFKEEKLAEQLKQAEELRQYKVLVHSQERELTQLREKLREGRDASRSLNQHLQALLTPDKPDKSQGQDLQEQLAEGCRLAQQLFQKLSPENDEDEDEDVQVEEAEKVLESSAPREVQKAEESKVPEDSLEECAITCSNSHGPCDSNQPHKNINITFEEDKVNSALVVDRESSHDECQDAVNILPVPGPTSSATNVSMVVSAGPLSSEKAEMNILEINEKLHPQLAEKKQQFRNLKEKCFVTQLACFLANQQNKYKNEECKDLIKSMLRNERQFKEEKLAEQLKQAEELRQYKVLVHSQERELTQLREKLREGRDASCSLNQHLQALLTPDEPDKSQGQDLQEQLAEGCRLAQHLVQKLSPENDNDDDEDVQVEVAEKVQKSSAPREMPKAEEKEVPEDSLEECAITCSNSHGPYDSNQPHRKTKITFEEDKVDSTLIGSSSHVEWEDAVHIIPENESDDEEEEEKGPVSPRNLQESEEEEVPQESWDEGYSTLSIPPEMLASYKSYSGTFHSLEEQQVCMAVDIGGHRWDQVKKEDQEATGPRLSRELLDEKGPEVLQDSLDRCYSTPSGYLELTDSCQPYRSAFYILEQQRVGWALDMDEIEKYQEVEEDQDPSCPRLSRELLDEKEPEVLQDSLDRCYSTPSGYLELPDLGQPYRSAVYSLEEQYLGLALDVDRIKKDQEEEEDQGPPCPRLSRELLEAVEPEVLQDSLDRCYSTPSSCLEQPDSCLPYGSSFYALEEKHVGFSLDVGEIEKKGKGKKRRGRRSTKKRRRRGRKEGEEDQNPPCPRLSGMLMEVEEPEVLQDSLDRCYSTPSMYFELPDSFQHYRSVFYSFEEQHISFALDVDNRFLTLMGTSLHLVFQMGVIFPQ
B3: Mothers against decapentaplegic homolog 4 (Homo sapiens), Q13485 (parent)
chain: B2 chain
partner: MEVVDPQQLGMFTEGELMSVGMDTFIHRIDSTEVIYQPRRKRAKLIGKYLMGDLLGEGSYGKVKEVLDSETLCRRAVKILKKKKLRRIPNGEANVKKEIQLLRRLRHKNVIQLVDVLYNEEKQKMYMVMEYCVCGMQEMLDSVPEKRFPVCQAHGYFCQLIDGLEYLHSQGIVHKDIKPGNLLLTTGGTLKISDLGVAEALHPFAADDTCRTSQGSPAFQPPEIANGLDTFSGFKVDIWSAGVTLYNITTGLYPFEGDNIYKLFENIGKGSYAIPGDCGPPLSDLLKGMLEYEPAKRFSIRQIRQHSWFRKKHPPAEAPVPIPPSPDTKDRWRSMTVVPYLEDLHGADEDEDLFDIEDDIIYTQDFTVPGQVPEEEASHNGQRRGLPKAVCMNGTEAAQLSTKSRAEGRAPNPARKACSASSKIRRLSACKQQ
B4: Mothers against decapentaplegic homolog 4 (Homo sapiens), Q13485 (parent)
chain: B2 chain
partner: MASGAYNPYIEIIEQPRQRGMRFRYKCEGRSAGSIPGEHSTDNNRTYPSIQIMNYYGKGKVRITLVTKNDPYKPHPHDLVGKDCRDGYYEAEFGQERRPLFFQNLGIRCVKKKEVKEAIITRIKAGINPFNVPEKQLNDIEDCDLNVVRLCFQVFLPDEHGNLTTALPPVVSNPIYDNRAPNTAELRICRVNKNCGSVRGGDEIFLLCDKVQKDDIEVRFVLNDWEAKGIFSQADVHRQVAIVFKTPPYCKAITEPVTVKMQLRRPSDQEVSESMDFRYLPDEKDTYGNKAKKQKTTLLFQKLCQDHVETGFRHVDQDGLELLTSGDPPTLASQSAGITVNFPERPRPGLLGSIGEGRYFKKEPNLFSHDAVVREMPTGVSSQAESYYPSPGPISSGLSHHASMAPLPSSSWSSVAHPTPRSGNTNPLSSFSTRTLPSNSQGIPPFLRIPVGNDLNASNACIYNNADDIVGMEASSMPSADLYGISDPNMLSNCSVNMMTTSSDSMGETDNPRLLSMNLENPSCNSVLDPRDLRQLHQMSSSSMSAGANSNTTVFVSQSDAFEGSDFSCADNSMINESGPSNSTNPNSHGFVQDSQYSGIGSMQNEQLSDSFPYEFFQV
B5: Mothers against decapentaplegic homolog 4 (Homo sapiens), Q13485 (parent)
chain: B2 chain
partner: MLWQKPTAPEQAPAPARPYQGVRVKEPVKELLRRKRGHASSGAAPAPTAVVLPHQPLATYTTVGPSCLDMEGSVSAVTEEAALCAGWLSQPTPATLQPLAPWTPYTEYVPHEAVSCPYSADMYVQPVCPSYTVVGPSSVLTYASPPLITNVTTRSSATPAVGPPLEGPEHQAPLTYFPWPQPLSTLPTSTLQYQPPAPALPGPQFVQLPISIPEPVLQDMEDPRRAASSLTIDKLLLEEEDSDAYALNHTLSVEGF
B6: Mothers against decapentaplegic homolog 4 (Homo sapiens), Q13485 (parent)
chain: B2 chain
partner: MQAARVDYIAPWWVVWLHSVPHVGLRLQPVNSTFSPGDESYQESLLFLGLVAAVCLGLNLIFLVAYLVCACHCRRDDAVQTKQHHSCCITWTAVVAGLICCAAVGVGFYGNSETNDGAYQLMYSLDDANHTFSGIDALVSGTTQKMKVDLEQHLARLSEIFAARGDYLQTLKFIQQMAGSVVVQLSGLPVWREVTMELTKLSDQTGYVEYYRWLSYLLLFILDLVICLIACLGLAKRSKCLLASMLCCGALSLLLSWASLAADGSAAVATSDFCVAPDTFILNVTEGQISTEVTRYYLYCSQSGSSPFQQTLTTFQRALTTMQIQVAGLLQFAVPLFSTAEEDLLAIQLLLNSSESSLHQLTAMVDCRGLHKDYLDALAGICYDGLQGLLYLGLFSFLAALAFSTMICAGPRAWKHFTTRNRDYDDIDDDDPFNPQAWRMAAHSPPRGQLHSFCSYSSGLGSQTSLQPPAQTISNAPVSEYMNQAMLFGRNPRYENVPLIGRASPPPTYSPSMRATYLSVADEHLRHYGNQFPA
B7: Mothers against decapentaplegic homolog 4 (Homo sapiens), Q13485 (parent)
chain: B2 chain
partner: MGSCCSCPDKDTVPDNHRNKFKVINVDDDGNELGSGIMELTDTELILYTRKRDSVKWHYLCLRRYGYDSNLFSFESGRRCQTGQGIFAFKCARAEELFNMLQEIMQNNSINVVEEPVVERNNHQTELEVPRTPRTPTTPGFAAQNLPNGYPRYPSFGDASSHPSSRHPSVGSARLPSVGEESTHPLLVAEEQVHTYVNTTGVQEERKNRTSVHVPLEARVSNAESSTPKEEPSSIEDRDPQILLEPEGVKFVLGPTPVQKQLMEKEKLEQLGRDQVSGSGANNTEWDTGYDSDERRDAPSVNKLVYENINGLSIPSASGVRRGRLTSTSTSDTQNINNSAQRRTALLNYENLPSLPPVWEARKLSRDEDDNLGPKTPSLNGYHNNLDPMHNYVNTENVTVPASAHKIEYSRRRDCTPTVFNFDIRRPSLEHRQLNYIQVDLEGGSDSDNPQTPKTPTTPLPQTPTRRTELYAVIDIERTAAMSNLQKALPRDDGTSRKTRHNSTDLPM

Variants of: B1
Details: with acv1b_human ACVR1B

| Variant | effect of a mutation on the interaction |
| --- | --- |
| MSRVPSPPPPAEMSSGPVAESWCYTQIKVVKFSYMWTINNFSFCREEMGEVIKSSTFSSGANDKLKWCLRVNPKGLDEESKDYLSLYLLLVSCPKSEVRAKCKFSILNAKGEETKAMESQRAYRFVQGKDWGFKKFIRRDFLLDEANGLLPDDKLTLFCEVSVVQDSVNISGQNTMNMVKVPECRLADELGGLWENSRFTDCCLCVAGQEFQAHKAILAARSPVFSAMFEHEMEESKKNRVEINDVEPEVFKEMMCFIYTGKAPNLDKMADDLLAAADKYALERLKVMCEDALCSNLSVENAAEILILADLHSADQLKTQAVDFINYHASDVLETSGWKSMVVSHPHLVAEAYRSLASAQCPFLGPPRKRLKQS [F102C] | with no effect |

Variants of: B1
Details: with acv1b_human ACVR1B
Remark: another data set of the same source

| Variant | effect of a mutation on the interaction |
| --- | --- |
| MSRVPSPPPPAEMSSGPVAESWCYTQIKVVKFSYMWTINNFSFCREEMGEVIKSSTFSSGANDKLKWCLRVNPKGLDEESKDYLSLYLLLVSCPKSEVRAKFKFSILNAKGEETKAMESQRAYRFVQGKDWGLKKFIRRDFLLDEANGLLPDDKLTLFCEVSVVQDSVNISGQNTMNMVKVPECRLADELGGLWENSRFTDCCLCVAGQEFQAHKAILAARSPVFSAMFEHEMEESKKNRVEINDVEPEVFKEMMCFIYTGKAPNLDKMADDLLAAADKYALERLKVMCEDALCSNLSVENAAEILILADLHSADQLKTQAVDFINYHASDVLETSGWKSMVVSHPHLVAEAYRSLASAQCPFLGPPRKRLKQS [F133L] | with no effect |

Variants of: B2
Details: with nbpf1_human NBPF1, Q3BBV0

| Variant | effect of a mutation on the interaction |
| --- | --- |
| G386D | with no effect |

Variants of: B3
Details: with stk11_human STK11, Q15831

| Variant | effect of a mutation on the interaction |
| --- | --- |
| G386D | with no effect |

Variants of: B4
Details: with rel_human REL

| Variant | effect of a mutation on the interaction |
| --- | --- |
| G386D | with no effect |

Variants of: B5
Details: with obf1_human POU2AF1, Q16633

| Variant | effect of a mutation on the interaction |
| --- | --- |
| G386D | with no effect |

Variants of: B5
Details: with obf1_human POU2AF1, Q16633
Remark: another data set of the same source

| Variant | effect of a mutation on the interaction |
| --- | --- |
| G386D | increasing interaction strength |

Variants of: B6
Details: with ttyh2_human TTYH2, Q9BSA4

| Variant | effect of a mutation on the interaction |
| --- | --- |
| G386D | with no effect |

Variants of: B7
Details: with frs2_human FRS2, Q8WU20

| Variant | effect of a mutation on the interaction |
| --- | --- |
| R361C | with no effect |
